Assay [1] addresses PD-1 (programmed cell death 1; CD279) on tumor infiltrating lymphocytes (human) (UniProt Q15116). As to the kind of experiment: positive magnetic selection of TIL with M1H4-coupled microbeads.
Assay [2] shares this target. As to the kind of experiment: positive magnetic selection of REP TIL with EH12.2H7-coupled microbeads; sorted cells stained with secondary mIgG1-PE and aCD3 FITC.
The target is the same in assay [3]. As to the kind of experiment: flow cytometry re-analysis of cells sorted on EH12.2H7 staining, tumour OV8074.
For assay [4] the target is unchanged. The experiment in a line: flow cytometry, tumour digest M1156 stained with anti-PD-1 clone EH12.2H7; percent of CD3+ cells.
For assay [5] the target is unchanged. The experiment in a line: flow cytometry, tumour digest H3046 stained with anti-PD-1 clone EH12.2H7; percent of CD3+ cells. A general note: A flow cytometer gives signals particle by particle.
Assay [6] shares this target. The experiment in a line: flow cytometry re-analysis of cells sorted on EH12.2H7 staining, tumour M1156.
For assay [7] the target is unchanged. As to the kind of experiment: flow cytometry, tumour digest OV8074 stained with anti-PD-1 clone EH12.2H7; percent of CD3+ cells.

Sequence of UniProt Q15116 (Q15116 25-288): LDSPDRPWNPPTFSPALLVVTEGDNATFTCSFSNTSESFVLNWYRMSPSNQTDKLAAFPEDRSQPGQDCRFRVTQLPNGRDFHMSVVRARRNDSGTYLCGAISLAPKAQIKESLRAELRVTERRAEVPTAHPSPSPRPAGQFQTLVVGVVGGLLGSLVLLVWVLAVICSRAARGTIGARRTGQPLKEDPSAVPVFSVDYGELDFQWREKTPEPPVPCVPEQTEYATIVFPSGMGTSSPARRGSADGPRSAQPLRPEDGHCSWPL

In assay [1], “CD279 (PD-1) Monoclonal Antibody (Clone-MIH4), eBioscience” gave a purity of PD-1+ TIL after magnetic selection of more than 85%.

B1: anti-PD-1 antibody clone EH12.2H7 (antibody, from another filing, IgG1, V domains shown)
VH: QVQLQQSGAELAKPGASVQMSCKASGYSFTSSWIHWVKQRPGQGLEWIGYIYPSTGFTEYNQKFKDKATLTADKSSSTAYMQLSSLTSEDSAVYYCARWRDSSGYHAMDYWGQGTSVTVSS
VL: DIVLTQSPASLTVSLGQRATISCRASQSVSTSGYSYMHWYQQKPGQPPKLLIKFGSNLESGIPARFSGSGSGTDFTLNIHPVEEEDTATYYCQHSWEIPYTFGGGTKLEIK
In assay [2], B1 yielded a purity of PD-1+ TIL after magnetic selection of more than 85%. Besides, the results for the Post-sort Purity % PD-1+ (of CD3+) in assay [3] and in assay [6] were 98% and 100%, respectively. Further, the Pre-sort % PD-1+ (of CD3+) in assay [4] was 93%; in assay [5], 13%; in assay [7], 70%.

These data come from patent publication US20230293685A1.
